Source: US20230049152A1 (Genentech, published 2023)

Molecular target: T1, F21A
T1 construct: single alanine mutant of hCCR8; also called hCCR8 F21A
T1 receptor chain: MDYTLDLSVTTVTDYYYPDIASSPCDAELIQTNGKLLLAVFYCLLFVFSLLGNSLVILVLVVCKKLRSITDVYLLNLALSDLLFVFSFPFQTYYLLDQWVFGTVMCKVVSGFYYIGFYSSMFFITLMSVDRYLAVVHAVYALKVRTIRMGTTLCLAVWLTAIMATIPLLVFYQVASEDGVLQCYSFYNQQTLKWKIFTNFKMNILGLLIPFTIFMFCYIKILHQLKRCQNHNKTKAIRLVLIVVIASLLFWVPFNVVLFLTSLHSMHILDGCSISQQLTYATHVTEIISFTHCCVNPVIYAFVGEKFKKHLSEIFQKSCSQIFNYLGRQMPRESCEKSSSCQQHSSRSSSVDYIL
Test: flow cytometry, HEK293 transfected with hCCR8 F21A with C-terminal FLAG; sheet prints [huCCR8]=0.02 ug/ml
Method: FIGS. 16A-16B depict the epitope maps for hu.Ab5.H13L1 (FIG. 16A) and hu.Ab4.H12L3 (FIG. 16B) mAbs.
To epitope map fucosylated hu.Ab5.H13L1, the binding to alanine point mutations in human CCR8 was analyzed by flow cytometry.

B1: hu.Ab5.H13L1 (antibody, human IgG1, kappa)
heavy: not shown
light: DIQVTQSPSSLSASVGDRVTITCQASENIANALAWYQQKPGKPPKFLIYGASNLASGVPSRFSGSGSGTDFTFTISSLQPEDIATYYCQQAYYGNSFVEGTFGGGTKVEIKRTVAAPSVFIFPPSDEQLKSGTASVVCLLNNFYPREAKVQWKVDNALQSGNSQESVTEQDSKDSTYSLSSTLTLSKADYEKHKVYACEVTHQGLSSPVTKSFNRGEC
notes: fucosylated human IgG1; also called Ab5 variant
binding result: binds
